# Measured values: article PMC2831815
# Substrate: Nc1ncnc2c1ncn2[C@@H]1O[C@H](COP(=O)(O)OP(=O)(O)OP(=O)(O)O)[C@@H](O)[C@H]1O
# Assay: purified protein
# Details: 10 mM MgCl2, pH 7.6, 37 °C, ATP 0.025-3.5 mM
protein,measurement,setting,value
TraK (Aeromonas veronii) (protein) MKNKAGFIGFLLFVFALCSVGSLYLGGYMLLKKSGVDMSALSIHTFFDVNRDLGGDPAFKKIIAWGWIGFAIPYAIFLFFVGVMLVGLMPKKVIYGDGRLATPMDLARSGFFPKKGDKHKQPPILIGKMFKGRFKNSYIYFYGQQFLILYAPTRSGKGVGIVIPNCVNYPESIVVLDIKLENFFLSAGYRKEQGQECFLFSPDGFADNLDAARRGEIKSHRFNPLDYVSRSPLQRESDLKKIAAILYPTSGGENDTWNESASSLWIGLALYLLDMEKVEPKTKVAVSQIIKISVPGSGDPLEKWMELTIKAKSDILGDDTKQYFRKFMSAADRTRASILVNFNNGVAVFSNPITAAATDSSDFDLRDLRKKKMSVYLGLSPNSLVTHAKLVNLFFSLLVNENTKELPENNPELKYQCLLILDEFTSMGRVEIIQKAVGFTAGYNIRFMFILQNKGQLEDDKMYGKEGAETFIENTGVELYYPPKSVNDTAKAISEKIGVRDEKVSSISRSSQSGKTSRSKSTSTEKRAVLLPDEIVSLRDHKNKGGNMAVREIILSDFCRPFIANKIVYFEEPIFMERVNYARKNPIEIPFLFNEDERKTFTCDSISLGSVMKKPDLDNHDQADKSE,Km,Discussion prints 0.96 mM instead,920 µM
TraE (Aeromonas veronii) (protein) MKQIKQTPLKKGRTEPVMRMYPDYQFHVSDNVVFTADKKALASIAIEGMPFESISDGVLESDFDSIKNFLVNMGKDGDVYLWTHLVKEKVSLDEEYHFKSDFLNRFSNQYTELFRGSNFFKSTYYLTFGIKYSNISEAIERLDEVIHQAKAVLGKYGAHVLTVDQNRVSGVADYLHLLLNKSHAEIPLSINPISSSIADSEWYFGYDSLELRNNEAEEKKFATNYVVKDFPMFTELGQWDFLLRLPYEFIITQSFIYEAPTKTLKEIDAQLNKMGSAGDAAENQQDELVLGKEVVTSGITLFGSYHCVLTVFGRTADEARKNGIKVSSEFVSAGKGFRFIRTNSAGAHCYFSHMPMNKIRPLATRRTITNLACTFSLHNYSHGKKRGNPIGDGTAIMPLKTVADGLYWFNTHYSEPGRDVRGQKIAGHAMILGATGAGKTTFEGAAAGFLQRFDPYMFVVDFNRSTELFVRAYGGSYFTLKEGEYTGLNPFQICDLDDELAPRLVQFLKSYVKTLAYDQSGKPCSDAQAEELAKAVDATMLLPREMRRLSTLLSRISDPELKIRLAKWCGAGQYAWAVDSPRNTFNPMDFKKVGFDTTVILEKTKDGVHPACEPLLAILFFYKSLMQREGQLMLSIIEEFWMPANFPLTQAMIKSALKAGRMKGEMMWLTSQSPEDAIYCEIFPALVQQTATKILLPNPDADLEGYKKIGLTVKEFDRLKKLGKESRTMLIKQSGSSCFAKMDLYGFDDFLPIISGSMEGITLCEKVRAELGTDNPDIWIPEFLKQLREE,Km,,550 µM
